Legend:
[1] = target: IgE (NIP IgE, AbD Serotec) (Homo sapiens (Human)), P01854; test: cell-based or functional assay
[2] = target: T1, IgE-Fc (UniProt P01854-1 104-428, limits assumed); test: flow cytometry competition: 1 nM IgE-Fc-A488 binding to FcεRI on RBL SX-38 cells
T1 construct: domain: IgE-Fc; In SPR it was captured on the chip by the α-Cε4 Fab; also called α-Cε4 Fab captured IgE-Fc; IgE-Fc-A488

[3] = target: T1, IgE-Fc; test: SPR (Biacore T200), monophasic kinetic fitting, derCD23 4000 nM to 31 nM over α-Cε4 Fab captured IgE-Fc, pH 7.4, 4 mM CaCl2
Method: (§1) An α-Cε4 Fab CM5 sensor surface was prepared using amine-coupling and a mock amine-coupled surface was used as a reference-subtraction control. […] Injections were performed at a flow rate of 25 μl·min⁻¹ in a running buffer of 10 mM HEPES, pH 7.4, 150 mM NaCl, 4 mM CaCl₂, and 0.005% (v/v) surfactant P-20 (GE Healthcare).

[4] = target: T1, IgE-Fc; test: SPR (Biacore), steady state analysis, one-to-one binding model, derCD23 0-4 µM over α-Cε4 Fab captured IgE-Fc
Method: as §1

T1 sequence (P01854 other isoform, or with tags, fused parts or gaps limits assumed): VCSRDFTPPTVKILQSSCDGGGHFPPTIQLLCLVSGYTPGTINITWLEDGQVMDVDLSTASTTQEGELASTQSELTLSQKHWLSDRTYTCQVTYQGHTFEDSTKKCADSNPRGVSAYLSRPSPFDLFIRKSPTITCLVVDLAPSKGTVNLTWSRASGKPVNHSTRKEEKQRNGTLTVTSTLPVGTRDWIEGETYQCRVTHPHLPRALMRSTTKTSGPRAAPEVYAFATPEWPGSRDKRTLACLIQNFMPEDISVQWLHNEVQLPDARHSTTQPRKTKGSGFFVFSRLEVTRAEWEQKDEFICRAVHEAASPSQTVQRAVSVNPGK
Chain of IgE (NIP IgE, AbD Serotec) (Homo sapiens (Human)), P01854 (P01854 other isoform, or with tags, fused parts or gaps limits assumed): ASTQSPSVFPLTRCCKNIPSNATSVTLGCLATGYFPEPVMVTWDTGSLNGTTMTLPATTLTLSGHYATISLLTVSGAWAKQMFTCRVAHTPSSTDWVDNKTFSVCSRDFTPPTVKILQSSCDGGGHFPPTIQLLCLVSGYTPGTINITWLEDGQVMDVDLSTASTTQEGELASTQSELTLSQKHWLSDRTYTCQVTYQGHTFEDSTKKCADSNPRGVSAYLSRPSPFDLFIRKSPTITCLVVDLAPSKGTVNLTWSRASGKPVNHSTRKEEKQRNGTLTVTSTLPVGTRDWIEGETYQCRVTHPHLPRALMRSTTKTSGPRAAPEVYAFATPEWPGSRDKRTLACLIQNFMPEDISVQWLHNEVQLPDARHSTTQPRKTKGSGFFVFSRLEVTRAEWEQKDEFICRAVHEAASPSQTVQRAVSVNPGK

B1: anti-IgE^4 (Fc fusion)
chain: EASDLLERLREEVTKLRMELQVSSGFVCNTCPEKWINFQRKCYYFGKGTKQWVHARYACDDMEGQLVSIHSPEEQDFLTKHASHTGSWIGLRNLDLKGEFIWVDGSHVDYSNWAPGEPTSRSQGEDCVMMRGSGRWNDAFCDRKLGAWVCDRLATCTPPASEGSAESMGPDSRPDPDGRLPTPSAPLHSGGGGSGGGGSGGGGSGGGGSASISAMVRSPRGPTIKPCPPCKCPAPNLEGGPSVFIFPPKIKDVLMISLSPIVTCVVVDVSEDDPDVQISWFVNNVEVHTAQTQTHREDYNSTLRVVSALPIQHQDWMSGKAFACAVNNKDLPAPIERTISKPKGSVRAPQVYVLPPPEEEMTKKQVTLTCMVTDFMPEDIYVEWTNNGKTELNYKNTEPVLDSDGSYFMYSKLRVEKKNWVERNSYSCSVVHEGLHNHHTTKSFSRTPGK
modifications: here or on the partner: In the flow-cytometry assays the IgE carried AlexaFluor-488 dye at unspecified positions. The letters do not show this.
**Q.** Which IC50 of inhibition of IgE mediated degranulation [1] does the source give for B1 here?
**A.** Its IC50 of inhibition of IgE mediated degranulation is 10 to 30 nM.

**Q.** And the efficacy of inhibition of IgE mediated degranulation of basophils [1]?
**A.** The efficacy of inhibition of IgE mediated degranulation of basophils was 100%.

B2: anti-IgE^4 (Fc fusion)
chain: EASDLLERLREEVTKLRMELQVSSGFVCNTCPEKWINFQRKCYYFGKGTKQWVHARYACDDMEGQLVSIHSPEEQDFLTKHASHTGSWIGLRNLDLKGEFIWVDGSHVDYSNWAPGEPTSRSQGEDCVMMRGSGRWNDAFCDRKLGAWVCDRLATCTPPASEGSAESMGPDSRPDPDGRLPTPSAPLHSGGGGSGGGGSGGGGSGGGGSASISAMVRSPRGPTIKPCPPCKCPAPNLEGGPSVFIFPPKIKDVLMISLSPIVTCVVVDVSEDDPDVQISWFVNNVEVHTAQTQTHREDYNSTLRVVSALPIQHQDWMSGKAFACAVNNKDLPAPIERTISKPKGSVRAPQVYVLPPPEEEMTKKQVTLTCMVTDFMPEDIYVEWTNNGKTELNYKNTEPVLDSDGSYFMYSKLRVEKKNWVERNSYSCSVVHEGLHNHHTTKSFSRTPGK
notes: also called biologic anti-IgE^4
**Q.** With B2 as the binder, how does the “IC50 (read off the curve)” value [2] read?
**A.** The value was ~7 nM.

B3: derCD23 (receptor)
chain: SGFVCNTCPEKWINFQRKCYYFGKGTKQWVHARYACDDMEGQLVSIHSPEEQDFLTKHASHTGSWIGLRNLDLKGEFIWVDGSHVDYSNWAPGEPTSRSQGEDCVMMRGSGRWNDAFCDRKLGAWVCDRLATCTPPASEGSAE
notes: also called derCD23 monomer; CD23 monomer
**Q.** What does the source list for B3?
**A.** Kd [3]: 1800 nM; Kd [4]: 1820 nM

B4: hCD23-G4S3-mIgG2a Fc (Fc fusion)
chain: EASDLLERLREEVTKLRMELQVSSGFVCNTCPEKWINFQRKCYYFGKGTKQWVHARYACDDMEGQLVSIHSPEEQDFLTKHASHTGSWIGLRNLDLKGEFIWVDGSHVDYSNWAPGEPTSRSQGEDCVMMRGSGRWNDAFCDRKLGAWVCDRLATCTPPASEGSAESMGPDSRPDPDGRLPTPSAPLHSGGGGSGGGGSGGGGSASISAMVRSPRGPTIKPCPPCKCPAPNLEGGPSVFIFPPKIKDVLMISLSPIVTCVVVDVSEDDPDVQISWFVNNVEVHTAQTQTHREDYNSTLRVVSALPIQHQDWMSGKAFACAVNNKDLPAPIERTISKPKGSVRAPQVYVLPPPEEEMTKKQVTLTCMVTDFMPEDIYVEWTNNGKTELNYKNTEPVLDSDGSYFMYSKLRVEKKNWVERNSYSCSVVHEGLHNHHTTKSFSRTPGK
modifications: here or on the partner: In the flow-cytometry assays the IgE carried AlexaFluor-488 dye at unspecified positions. The letters do not show this.
**Q.** Which results are given for B4?
**A.** Extracellular supernatant (IgE remaining prior to buffer change), 1 nM IgE with 0.01 nM biologic, percentage of IgE [1]: 7%; Extracellular supernatant (IgE remaining prior to buffer change), 1 nM IgE with 0.05 nM biologic, percentage of IgE [1]: 4.5%; Extracellular supernatant (IgE remaining prior to buffer change), 1 nM IgE with 0.5 nM biologic, percentage of IgE [1]: 1%; Extracellular supernatant (IgE remaining), 1 nM IgE with 0.01 nM biologic, percentage of IgE [1]: 8%; Extracellular supernatant (IgE remaining), 1 nM IgE with 0.05 nM biologic, percentage of IgE [1]: 5%; Extracellular supernatant (IgE remaining), 1 nM IgE with 0.5 nM biologic, percentage of IgE [1]: 1%; IC50 of inhibition of IgE mediated degranulation [1]: 10 to 30 nM; IgE Intracellular retention, 1 nM IgE with 0.01 nM biologic, percentage of IgE [1]: 92%; IgE Intracellular retention, 1 nM IgE with 0.05 nM biologic, percentage of IgE [1]: 94%; IgE Intracellular retention, 1 nM IgE with 0.5 nM biologic, percentage of IgE [1]: 98%; IgE Intracellular retention, 1 nM IgE with 1 nM biologic, percentage of IgE [1]: 95%; IgE Intracellular retention, 1 nM IgE with 5 nM biologic, percentage of IgE [1]: 93%; IgE Intracellular retention, 1 nM IgE with 50 nM biologic, percentage of IgE [1]: 90%; IgE Intracellular retention, 1 nM IgE with 500 nM biologic, percentage of IgE [1]: 79%; IgE Intracellular retention, 1 nM IgE with 1000 nM biologic, percentage of IgE [1]: 65%; IgE Intracellular retention, 1 nM IgE with 2000 nM biologic, percentage of IgE [1]: 52%; IgE Uptake, 1 nM IgE with 0.01 nM biologic, percentage of IgE [1]: 92%; IgE Uptake, 1 nM IgE with 0.05 nM biologic, percentage of IgE [1]: 95%; IgE Uptake, 1 nM IgE with 0.5 nM biologic, percentage of IgE [1]: 99%; IgE Uptake, 1 nM IgE with 1 nM biologic, percentage of IgE [1]: 100%; IgE Uptake, 1 nM IgE with 5 nM biologic, percentage of IgE [1]: 100%; IgE Uptake, 1 nM IgE with 50 nM biologic, percentage of IgE [1]: 100%; IgE Uptake, 1 nM IgE with 500 nM biologic, percentage of IgE [1]: 100%; IgE Uptake, 1 nM IgE with 1000 nM biologic, percentage of IgE [1]: 100%; IgE Uptake, 1 nM IgE with 2000 nM biologic, percentage of IgE [1]: 100%; efficacy of inhibition of IgE mediated degranulation of basophils [1]: 90%

B5: hCD23-G4S3-mIgG2a Fc (Fc fusion)
chain: EASDLLERLREEVTKLRMELQVSSGFVCNTCPEKWINFQRKCYYFGKGTKQWVHARYACDDMEGQLVSIHSPEEQDFLTKHASHTGSWIGLRNLDLKGEFIWVDGSHVDYSNWAPGEPTSRSQGEDCVMMRGSGRWNDAFCDRKLGAWVCDRLATCTPPASEGSAESMGPDSRPDPDGRLPTPSAPLHSGGGGSGGGGSGGGGSASISAMVRSPRGPTIKPCPPCKCPAPNLEGGPSVFIFPPKIKDVLMISLSPIVTCVVVDVSEDDPDVQISWFVNNVEVHTAQTQTHREDYNSTLRVVSALPIQHQDWMSGKAFACAVNNKDLPAPIERTISKPKGSVRAPQVYVLPPPEEEMTKKQVTLTCMVTDFMPEDIYVEWTNNGKTELNYKNTEPVLDSDGSYFMYSKLRVEKKNWVERNSYSCSVVHEGLHNHHTTKSFSRTPGK
notes: It has two CD23 monomers, paired through the IgG Fc; also called anti-IgE^3; IgE^3
**Q.** For B5, which “IC50 (read off the curve)” value [2] is on record?
**A.** Its value is ~10 nM.

B6: anti-IgE^0 (Fc fusion)
chain: EASDLLERLREEVTKLRMELQVSSGFVCNTCPEKWINFQRKCYYFGKGTKQWVHARYACDDMEGQLVSIHSPEEQDFLTKHASHTGSWIGLRNLDLKGEFIWVDGSHVDYSNWAPGEPTSRSQGEDCVMMRGSGRWNDAFCDRKLGAWVCDRLATCTPPASEGSAESMGPDSRPDPDGRLPTPSAPLHSASISAMVRSPRGPTIKPCPPCKCPAPNLEGGPSVFIFPPKIKDVLMISLSPIVTCVVVDVSEDDPDVQISWFVNNVEVHTAQTQTHREDYNSTLRVVSALPIQHQDWMSGKAFACAVNNKDLPAPIERTISKPKGSVRAPQVYVLPPPEEEMTKKQVTLTCMVTDFMPEDIYVEWTNNGKTELNYKNTEPVLDSDGSYFMYSKLRVEKKNWVERNSYSCSVVHEGLHNHHTTKSFSRTPGK
modifications: here or on the partner: In the flow-cytometry assays the IgE carried AlexaFluor-488 dye at unspecified positions. The letters do not show this.
**Q.** With B6 as the binder, how does the IC50 of inhibition of IgE mediated degranulation [1] read?
**A.** Its IC50 of inhibition of IgE mediated degranulation is > 300 nM.

**Q.** What about the maximal efficacy of inhibition of IgE mediated degranulation of basophils [1] of the same binder?
**A.** The maximal efficacy of inhibition of IgE mediated degranulation of basophils was 50%.

B7: anti-IgE^0 (Fc fusion)
chain: EASDLLERLREEVTKLRMELQVSSGFVCNTCPEKWINFQRKCYYFGKGTKQWVHARYACDDMEGQLVSIHSPEEQDFLTKHASHTGSWIGLRNLDLKGEFIWVDGSHVDYSNWAPGEPTSRSQGEDCVMMRGSGRWNDAFCDRKLGAWVCDRLATCTPPASEGSAESMGPDSRPDPDGRLPTPSAPLHSASISAMVRSPRGPTIKPCPPCKCPAPNLEGGPSVFIFPPKIKDVLMISLSPIVTCVVVDVSEDDPDVQISWFVNNVEVHTAQTQTHREDYNSTLRVVSALPIQHQDWMSGKAFACAVNNKDLPAPIERTISKPKGSVRAPQVYVLPPPEEEMTKKQVTLTCMVTDFMPEDIYVEWTNNGKTELNYKNTEPVLDSDGSYFMYSKLRVEKKNWVERNSYSCSVVHEGLHNHHTTKSFSRTPGK
notes: also called biologic anti-IgE^0
**Q.** With B7 as the binder, how does the “IC50 (read off the curve)” value [2] read?
**A.** Its value is ~30 nM.

Source: patent US20220332789A1 (COMBIKINE BIOTECHNOLOGY, published 2022)
